US20100183649A1 (ACADEMIA SINICA, published 2010)

B1: FMDV capsid protein VP3 (other)
chain: GIFPVACSDGYGGLVTTDPKTADPVYGKVFNPPRNLLPGRFTNLLDVAEACPTFLHFDGDVPYVTTKTDSDRVLAQFDLSLAAKHMSNTFLAGLAQYYTQYSGTINLHFMFTGPTDAKARYMVAYAPPGMEPPKTPEAAAHCIHAEWDTGLNSKFTFSIPYLSAADYAYTASDVAETTNVQGWVCLFQITHGKADGDALVVLASAGKDFDLRLPVDARTQ
B2: FMDV capsid protein VP1 (other)
chain: TTSAGESADPVTATVENYGGETQVQRRQHTDIAFILDRFVKVKPKEQVNVLDLMQIPAHTLVGALLRTATYYFSDLELAVKHEGDLTWVPNGAPETALDNTTNPTAYHKEPLTRLALPYTAPHRVLATVYNGSSKYGDTSTNNVRGDLQVLAQKAERTLPTSFNFGAIKATRVTELLYRMKRAETYCPRPLLAIQPSDARHKQRIVAPAKQLL

Experiments:
FMDV capsid protein VP0 = FMDV capsid protein VP0 (foot-and-mouth disease virus, UniProt Q6PMV1 218-504); assay: size exclusion HPLC of the U1P1 protease-treated product
FMDV capsid protein VP3 = biological target: B1; assay: as above

Binder | binding result (FMDV capsid protein VP0) | binding result (FMDV capsid protein VP3)
B1 | binds | 
B2 | binds | binds
